Columns and labels:
[1] = target: SpoVM (synthesized 26-amino-acid peptide), adsorbed on spherical supported lipid bilayers (Bacillus subtilis); test: fluorescence microscopy of retention on bead-supported lipid bilayers after competition; 0.006 uM SpoIVA^AF488 adsorbed on SpoVM-SSLBs without ATP in buffer A with 10 mM MgCl2; then 5 uM (800-fold excess) unlabelled SpoIVA; followed over time to 72 h
[2] = target: SpoVM (synthesized 26-amino-acid peptide), adsorbed on spherical supported lipid bilayers (Bacillus subtilis); test: fluorescence microscopy of retention on bead-supported lipid bilayers after competition; 0.006 uM SpoIVA^AF488 adsorbed on SpoVM-SSLBs with 4 mM ATP in buffer A with 10 mM MgCl2; then 5 uM (800-fold excess) unlabelled SpoIVA; followed over time to 72 h

SpoVM (synthesized 26-amino-acid peptide), adsorbed on spherical supported lipid bilayers (Bacillus subtilis), sequence (P37817 whole entry): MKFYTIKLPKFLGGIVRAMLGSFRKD

What does the source list for “SpoIVA^AF488 (His6-tagged cysteine-less SpoIVA variant C98S with a single engineered cysteine at the N terminus, labelled with AlexaFluor 488) (from UniProt P35149 1-492) (natural protein)”?
percent of the initial SpoIVA^AF488 still adsorbed after 4 h of competition with unlabelled SpoIVA, without ATP [1]: 72%; percent of the initial SpoIVA^AF488 still adsorbed after 72 h of competition with unlabelled SpoIVA, without ATP [1]: 26%; percent of the initial SpoIVA^AF488 still adsorbed after 72 h of competition with unlabelled SpoIVA, with ATP [2]: 81%

From publication PMC4396682
